From US20150218534A1, “MODIFIED DNA POLYMERASE” (TOYOBO CO., LTD., priority 2012, published 2015)

Tested on: human genomic DNA (about 1.3 kb) with dUTP added
Assay: Evaluation of uracil (dUTP) sensitivity by PCR with dUTP added to the reaction
Format: biochemical
Details: dUTP added to PCR (FIGS. 3 and 4)
Protocol: The uracil sensitivity of the modified DNA polymerase of the present invention can be evaluated by PCR. For example, a dUTP solution is added at a final concentration of 0.5 μM to 200 μM to a common PCR reaction solution containing DNA as a template, a buffer, magnesium, dNTPs, primers, and a DNA polymerase to be evaluated, and thermal cycling is performed. After the reaction, the presence or absence of PCR products is confirmed by ethidium bromide-stained agarose electrophoresis, and the uracil sensitivity can be evaluated by the concentration of accepted dUTP. With a DNA polymerase having high uracil sensitivity, the extension reaction is inhibited by the addition of a small amount of dUTP, and PCR products cannot be confirmed. With a DNA polymerase having low uracil sensitivity, gene amplification by PCR can be confirmed without problem, even if a high concentration of dUTP is added. The modified DNA polymerase with low uracil sensitivity in the present invention refers to a DNA polymerase such that when optimum thermal cycling is performed using any primers and DNA as a template in a reaction buffer optimum for the enzyme, even if a high concentration of dUTP is added, an extension reaction is not inhibited and PCR products can be confirmed, compared to wild-type DNA polymerase, which has no mutation.
More specifically, 10× PCR buffer included in KOD-Plus-Ver. 2 (produced by Toyobo Co. Ltd.) or 10× PCR buffer included in Pfu DNA Polymerase (produced by Agilent) is used; dUTP (produced by Roche) is added to 50 μl of individual reaction solutions containing 1× PCR buffer, 1.5 mM MgSO4, dNTPs (dATP, dTTP, dCTP, and dGTP) in an amount of 0.2 mM, primers represented by SEQ ID NOs: 25 and 26 in an amount of 15 pmol for amplifying about 1.3 kb, 10 ng of human genomic DNA (produced by Roche), and 1 U of each respective enzyme, to final concentrations of 0.5, 5, 50, 100, and 200 μM. PCR is performed using a GeneAmp PCR system 9700 (Applied Biosystems) on the following schedule; preliminary reaction at 94° C. for 30 seconds, followed by 30 cycles, each cycle consisting of 98° C. for 10 seconds, 65° C. for 30 seconds, and 68° C. for 1 minute and 30 seconds. After the completion of each individual reaction, 5 μl of each of the resulting reaction solutions is subjected to agarose electrophoresis, followed by ethidium bromide staining. The uracil sensitivity can be evaluated by confirming amplified DNA fragments of about 1.3 kb under ultraviolet irradiation.
PCR was performed by the following method to evaluate uracil sensitivity. For PCR, components included in KOD-Plus-Ver. 2 (produced by Toyobo Co. Ltd.) were used. dUTP (produced by Roche) was added to 50 μl of individual reaction solutions containing 1× PCR buffer, 1.5 mM MgSO4, dNTPs (dATP, dTTP, dCTP, dGTP) in an amount of 0.2 mM, primers represented by SEQ ID NOs: 25 and 26 in an amount of 15 pmol for amplifying about 1.3 kb, 10 ng of human genomic DNA (produced by Roche), and 1 U of each respective enzyme, to final concentrations of 0.5, 5, 50, 100, and 200 μM. PCR was performed using a GeneAmp PCR system 9700 (produced by Applied Biosystems) on the following schedule: preliminary reaction at 94° C. for 30 seconds, followed by 30 cycles, each cycle consisting of 98° C. for 10 seconds, 65° C. for 30 seconds, and 68° C. for 1 minute and 30 seconds. After the completion of each individual reaction, 5 μl of each of the resulting reaction solutions was subjected to agarose electrophoresis, followed by ethidium bromide staining. Under ultraviolet irradiation, amplified DNA fragments of about 1.3 kb were confirmed. FIGS. 3, 4, 7, and 8 show the results.

Molecule	sensitivity to dUTP / amount of amplification, comparison with single mutants or wild type
KOD N210D: modified KOD DNA polymerase with N210D, deficient in 3′-5′ exonuclease activity (exo(−)) (protein, listed as Thermococcus kodakaraensis) MILDTDYITEDGKPVIRIFKKENGEFKIEYDRTFEPYFYALLKDDSAIEEVKKITAERHGTVVTVKRVEKVQKKFLGRPVEVWKLYFTHPQDVPAIRDKIREHPAVIDIYEYDIPFAKRYLIDKGLVPMEGDEELKMLAFDIETLYHEGEEFAEGPILMISYADEEGARVITWKNVDLPYVDVVSTEREMIKRFLRVVKEKDPDVLITYDGDNFDFAYLKKRCEKLGINFALGRDGSEPKIQRMGDRFAVEVKGRIHFDLYPVIRRTINLPTYTLEAVYEAVFGQPKEKVYAEEITTAWETGENLERVARYSMEDAKVTYELGKEFLPMEAQLSRLIGQSLWDVSRSSTGNLVEWFLLRKAYERNELAPNKPDEKELARRRQSYEGGYVKEPERGLWENIVYLDFRSLYPSIIITHNVSPDTLNREGCKEYDVAPQVGHRFCKDFPGFIPSLLGDLLEERQKIKKKMKATIDPIERKLLDYRQRAIKILANSYYGYYGYARARWYCKECAESVTAWGREYITMTIKEIEEKYGFKVIYSDTDGFFATIPGADAETVKKKAMEFLKYINAKLPGALELEYEGFYKRGFFVTKKKYAVIDEEGKITTRGLEIVRRDWSEIAKETQARVLEALLKDGDVEKAVRIVKEVTEKLSKYEVPPEKLVIHEQITRDLKDYKATGPHVAVAKRLAARGVKIRPGTVISYIVLKGSGRIGDRAIPFDEFDPTKHKYDAEYYIENQVLPAVERILRAFGYRKEDLRYQKTRQVGLSAWLKPKGT	less sensitive to dUTP than the wild-type DNA polymerase
KOD D141A/E143A: modified KOD DNA polymerase with D141A and E143A, deficient in 3′-5′ exonuclease activity (exo(−)) (protein, listed as Thermococcus kodakaraensis) MILDTDYITEDGKPVIRIFKKENGEFKIEYDRTFEPYFYALLKDDSAIEEVKKITAERHGTVVTVKRVEKVQKKFLGRPVEVWKLYFTHPQDVPAIRDKIREHPAVIDIYEYDIPFAKRYLIDKGLVPMEGDEELKMLAFAIATLYHEGEEFAEGPILMISYADEEGARVITWKNVDLPYVDVVSTEREMIKRFLRVVKEKDPDVLITYNGDNFDFAYLKKRCEKLGINFALGRDGSEPKIQRMGDRFAVEVKGRIHFDLYPVIRRTINLPTYTLEAVYEAVFGQPKEKVYAEEITTAWETGENLERVARYSMEDAKVTYELGKEFLPMEAQLSRLIGQSLWDVSRSSTGNLVEWFLLRKAYERNELAPNKPDEKELARRRQSYEGGYVKEPERGLWENIVYLDFRSLYPSIIITHNVSPDTLNREGCKEYDVAPQVGHRFCKDFPGFIPSLLGDLLEERQKIKKKMKATIDPIERKLLDYRQRAIKILANSYYGYYGYARARWYCKECAESVTAWGREYITMTIKEIEEKYGFKVIYSDTDGFFATIPGADAETVKKKAMEFLKYINAKLPGALELEYEGFYKRGFFVTKKKYAVIDEEGKITTRGLEIVRRDWSEIAKETQARVLEALLKDGDVEKAVRIVKEVTEKLSKYEVPPEKLVIHEQITRDLKDYKATGPHVAVAKRLAARGVKIRPGTVISYIVLKGSGRIGDRAIPFDEFDPTKHKYDAEYYIENQVLPAVERILRAFGYRKEDLRYQKTRQVGLSAWLKPKGT	less sensitive to dUTP than the wild-type DNA polymerase
KOD I142R: modified KOD DNA polymerase with I142R, deficient in 3′-5′ exonuclease activity (exo(−)) (protein, listed as Thermococcus kodakaraensis) MILDTDYITEDGKPVIRIFKKENGEFKIEYDRTFEPYFYALLKDDSAIEEVKKITAERHGTVVTVKRVEKVQKKFLGRPVEVWKLYFTHPQDVPAIRDKIREHPAVIDIYEYDIPFAKRYLIDKGLVPMEGDEELKMLAFDRETLYHEGEEFAEGPILMISYADEEGARVITWKNVDLPYVDVVSTEREMIKRFLRVVKEKDPDVLITYNGDNFDFAYLKKRCEKLGINFALGRDGSEPKIQRMGDRFAVEVKGRIHFDLYPVIRRTINLPTYTLEAVYEAVFGQPKEKVYAEEITTAWETGENLERVARYSMEDAKVTYELGKEFLPMEAQLSRLIGQSLWDVSRSSTGNLVEWFLLRKAYERNELAPNKPDEKELARRRQSYEGGYVKEPERGLWENIVYLDFRSLYPSIIITHNVSPDTLNREGCKEYDVAPQVGHRFCKDFPGFIPSLLGDLLEERQKIKKKMKATIDPIERKLLDYRQRAIKILANSYYGYYGYARARWYCKECAESVTAWGREYITMTIKEIEEKYGFKVIYSDTDGFFATIPGADAETVKKKAMEFLKYINAKLPGALELEYEGFYKRGFFVTKKKYAVIDEEGKITTRGLEIVRRDWSEIAKETQARVLEALLKDGDVEKAVRIVKEVTEKLSKYEVPPEKLVIHEQITRDLKDYKATGPHVAVAKRLAARGVKIRPGTVISYIVLKGSGRIGDRAIPFDEFDPTKHKYDAEYYIENQVLPAVERILRAFGYRKEDLRYQKTRQVGLSAWLKPKGT	less sensitive to dUTP than the wild-type DNA polymerase
